Test results taken from paper PMC4315616.

Columns and labels:
[1] = target: T1, SNV nucleocapsid protein N wild type (SNVN) (Sin Nombre hantavirus, UniProt Q89462 1-428); assay: filter binding
T1 sequence: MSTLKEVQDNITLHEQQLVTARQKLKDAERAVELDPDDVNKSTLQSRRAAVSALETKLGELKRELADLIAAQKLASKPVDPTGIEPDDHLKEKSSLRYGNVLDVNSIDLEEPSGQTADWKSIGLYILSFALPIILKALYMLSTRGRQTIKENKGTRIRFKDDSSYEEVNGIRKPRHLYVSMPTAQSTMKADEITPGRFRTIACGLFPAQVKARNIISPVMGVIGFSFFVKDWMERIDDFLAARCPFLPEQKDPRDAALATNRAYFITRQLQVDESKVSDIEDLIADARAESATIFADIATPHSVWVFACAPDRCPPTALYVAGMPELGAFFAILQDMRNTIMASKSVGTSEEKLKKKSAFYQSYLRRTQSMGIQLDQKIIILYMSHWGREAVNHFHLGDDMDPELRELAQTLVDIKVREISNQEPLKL

[2] = target: T1, SNV nucleocapsid protein N wild type …; assay: BLI
[3] = target: T1, SNV nucleocapsid protein N wild type …; assay: BLI; remark: listed apart in the source
[4] = target: T1, SNV nucleocapsid protein N wild type …; assay: filter binding; remark: listed apart in the source

Binder	Kd [1] [nM]	Kd [2] [nM]	Kd [3] [nM]	binding signal [4]
GAUAUGUGAG (ssRNA, 5' mRNA cap (enzymatic, Cell Script)) [capped decameric RNA]	120 ± 0.6	106 ± 5.7	107.8 ± 0.7	–
GAUAUGUGAG (ssRNA) [uncapped decameric RNA]	–	477 ± 6.8	–	~4 fold lower affinity than capped
